This note sets out measurements from patent US20210338733A1 (University of Pennsylvania, published 2021).

This assay deals with T1, TnMUC1 (aberrantly glycosylated Tn glycoform of MUC1) as expressed by tumor cells (human, UniProt P15941 24-1255, Tn (GalNAca1-O-Ser/Thr) glycans; sites not stated).
T1 construct: whole, on cells; One molecule is used for all TnMUC1-positive target cells; In the IHC of breast tumor tissue the staining was cytoplasmic and/or membranous; also called TnMUC1 antigen; TnMUC1+ target cells (Jurkat E6-1, Hs766T, MCF7, breast cancer cell lines and tissue)
T1 sequence (P15941 24-1255): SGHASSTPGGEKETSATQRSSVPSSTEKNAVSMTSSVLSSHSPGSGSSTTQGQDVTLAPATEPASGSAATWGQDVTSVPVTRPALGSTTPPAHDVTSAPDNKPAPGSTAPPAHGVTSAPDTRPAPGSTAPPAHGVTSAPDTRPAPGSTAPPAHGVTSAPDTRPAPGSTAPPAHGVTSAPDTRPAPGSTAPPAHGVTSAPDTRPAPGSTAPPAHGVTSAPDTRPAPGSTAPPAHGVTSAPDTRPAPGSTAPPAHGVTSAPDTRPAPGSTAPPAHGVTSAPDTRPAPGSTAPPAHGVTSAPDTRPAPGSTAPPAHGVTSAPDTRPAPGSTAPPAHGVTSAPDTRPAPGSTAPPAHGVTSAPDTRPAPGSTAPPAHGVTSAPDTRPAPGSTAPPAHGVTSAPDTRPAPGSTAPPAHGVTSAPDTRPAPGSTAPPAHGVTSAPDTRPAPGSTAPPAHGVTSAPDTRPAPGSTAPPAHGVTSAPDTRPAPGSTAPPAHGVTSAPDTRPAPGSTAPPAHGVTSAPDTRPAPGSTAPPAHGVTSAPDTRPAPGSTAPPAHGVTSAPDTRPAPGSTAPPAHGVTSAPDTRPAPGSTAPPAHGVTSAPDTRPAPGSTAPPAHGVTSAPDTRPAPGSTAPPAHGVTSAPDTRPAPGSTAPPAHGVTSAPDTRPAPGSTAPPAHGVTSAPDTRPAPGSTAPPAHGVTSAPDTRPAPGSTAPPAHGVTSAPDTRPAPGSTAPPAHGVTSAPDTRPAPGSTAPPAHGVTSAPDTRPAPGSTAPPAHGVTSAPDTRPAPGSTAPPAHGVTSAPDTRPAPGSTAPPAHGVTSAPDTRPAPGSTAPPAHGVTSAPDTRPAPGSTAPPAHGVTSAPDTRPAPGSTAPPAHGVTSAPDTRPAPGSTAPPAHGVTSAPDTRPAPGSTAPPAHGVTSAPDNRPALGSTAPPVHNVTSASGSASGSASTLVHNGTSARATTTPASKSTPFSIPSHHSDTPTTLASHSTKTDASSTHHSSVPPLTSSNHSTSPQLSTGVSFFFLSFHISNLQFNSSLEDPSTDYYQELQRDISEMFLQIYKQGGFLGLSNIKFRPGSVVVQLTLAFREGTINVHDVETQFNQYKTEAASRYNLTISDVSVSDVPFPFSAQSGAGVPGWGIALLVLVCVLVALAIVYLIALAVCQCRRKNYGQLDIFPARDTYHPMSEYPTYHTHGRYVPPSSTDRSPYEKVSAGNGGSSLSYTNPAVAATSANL
Nature of the assay: immunohistochemistry on breast cancer tissue.

B1: Anti-TnMUC1 murine monoclonal antibody clone 5E5 (antibody, V domains shown)
VH: QVQLQQSDAELVKPGSSVKISCKASGYTFTDHAIHWVKQKPEQGLEWIGHFSPGNTDIKYNDKFKGKATLTVDRSSSTAYMQLNSLTSEDSAVYFCKTSTFFFDYWGQGTTLTVSS
VL: ELVMTQSPSSLTVTAGEKVTMICKSSQSLLNSGDQKNYLTWYQQKPGQPPKLLIFWASTRESGVPDRFTGSGSGTDFTLTISSVQAEDLAVYYCQNDYSYPLTFGAGTKLELK
notes: also called 5E5 mAb; mAb 5E5
As for B1, the binding result is reported as “binds”.
